Laboratory results: paper PMC549393

Molecular target: T1, TBP (TATA-binding protein);Brf1;Bdp1 (yeast?;yeast?;yeast?, UniProt P13393;P29056;P46678 1-240;1-596;1-594, ||)
T1 sequence 1: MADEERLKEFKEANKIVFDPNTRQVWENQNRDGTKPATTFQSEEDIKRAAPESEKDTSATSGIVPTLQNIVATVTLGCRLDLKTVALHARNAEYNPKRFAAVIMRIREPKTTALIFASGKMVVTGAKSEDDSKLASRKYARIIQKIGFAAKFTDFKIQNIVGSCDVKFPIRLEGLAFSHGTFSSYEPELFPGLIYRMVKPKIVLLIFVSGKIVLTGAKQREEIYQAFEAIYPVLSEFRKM
T1 sequence 2: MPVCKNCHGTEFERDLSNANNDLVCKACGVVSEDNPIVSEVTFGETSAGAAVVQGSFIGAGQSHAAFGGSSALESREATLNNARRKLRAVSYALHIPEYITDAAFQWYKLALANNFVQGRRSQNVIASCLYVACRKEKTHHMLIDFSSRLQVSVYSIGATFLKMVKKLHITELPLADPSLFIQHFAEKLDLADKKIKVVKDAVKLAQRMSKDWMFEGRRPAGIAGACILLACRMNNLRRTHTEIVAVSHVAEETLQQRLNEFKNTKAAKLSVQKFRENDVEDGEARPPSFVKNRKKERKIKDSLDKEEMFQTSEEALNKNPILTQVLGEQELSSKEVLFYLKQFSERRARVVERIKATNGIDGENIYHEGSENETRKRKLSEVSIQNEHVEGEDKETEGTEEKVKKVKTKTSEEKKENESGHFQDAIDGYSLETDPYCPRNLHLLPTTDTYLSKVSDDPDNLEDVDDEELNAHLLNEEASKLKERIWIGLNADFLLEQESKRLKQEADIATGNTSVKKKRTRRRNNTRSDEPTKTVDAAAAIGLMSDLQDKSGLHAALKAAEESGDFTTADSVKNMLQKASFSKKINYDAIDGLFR
T1 sequence 3: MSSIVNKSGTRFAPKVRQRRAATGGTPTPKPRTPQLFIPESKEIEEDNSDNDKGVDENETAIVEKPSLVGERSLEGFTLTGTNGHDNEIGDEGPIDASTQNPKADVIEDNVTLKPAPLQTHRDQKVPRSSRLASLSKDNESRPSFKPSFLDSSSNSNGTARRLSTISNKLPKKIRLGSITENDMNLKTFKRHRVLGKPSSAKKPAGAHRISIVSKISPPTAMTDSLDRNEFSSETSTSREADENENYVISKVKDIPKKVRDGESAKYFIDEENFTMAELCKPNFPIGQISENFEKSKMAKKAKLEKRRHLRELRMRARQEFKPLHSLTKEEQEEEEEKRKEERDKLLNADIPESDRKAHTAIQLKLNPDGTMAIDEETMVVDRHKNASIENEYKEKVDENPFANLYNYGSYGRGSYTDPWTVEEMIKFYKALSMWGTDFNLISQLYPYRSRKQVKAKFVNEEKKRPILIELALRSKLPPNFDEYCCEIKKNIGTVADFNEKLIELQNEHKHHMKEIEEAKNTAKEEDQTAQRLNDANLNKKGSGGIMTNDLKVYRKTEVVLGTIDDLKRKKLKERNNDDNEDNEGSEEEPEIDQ
Assay: EMSA

B1: U6 (SNR6) TATA-DNA, 30 bp (dsDNA)
DNA 1: TTTTCGGCTACTATAAATAAATGTTTTTTT
DNA 2: AAAAAAACATTTATTTATAGTAGCCGAAAA
B1: binds.
